The results in this text go back to the supplement of paper PMC5998384.

Data set [1] concerns HeLa Kyoto. As to the kind of experiment: solubility in G1/S (NP-40 vs SDS abundance) (log2 ratio); higher = more soluble. The conditions noted are these: cell cycle stage: G1/S.
For data set [2], the system named is HeLa Kyoto. As to the kind of experiment: melting temperature (median over replicates), in situ; higher = more thermally stable.
The subject of data set [3] is HeLa Kyoto. As to the kind of experiment: thermal stability score vs G1/S (z-score of summed log2 fold changes over temperatures); higher = more thermally stable than in G1/S.
Data set [4] concerns HeLa Kyoto. As to the kind of experiment: solubility change mitosis vs G1/S (difference of NP-40 vs SDS log2 ratios) (log2 ratio difference); higher = more soluble in mitosis.
The mark [5] stands for this setting: cell cycle stage: early G1 (4.5 h after nocodazole release).
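For melting temperature (median over replicates), in situ in this document: HeLa Kyoto cells synchronized by double thymidine or nocodazole block, proteins quantified by TMT10plex mass spectrometry, three independent biological replicates.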
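For solubility change mitosis vs G1/S (difference of NP-40 vs SDS log2 ratios) in this document: synchronized HeLa Kyoto cells (double thymidine block for G1/S, nocodazole release for mitosis), protein amounts in NP-40 versus SDS lysates quantified by mass spectrometry, three biological replicates.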
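For solubility in G1/S (NP-40 vs SDS abundance) in this document: HeLa Kyoto cells arrested at G1/S by double thymidine block, proteins quantified by TMT10plex mass spectrometry in mild NP-40 versus SDS extracts, three biological replicates.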
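For thermal stability score vs G1/S (z-score of summed log2 fold changes over temperatures) in this document: synchronized HeLa Kyoto cells, proteins quantified by TMT10plex mass spectrometry, three biological replicates, mitosis taken 0.5 h after nocodazole release, G1/S directly after double thymidine block.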

Consider “MAPSGLKAVVGEKILSGVIRSVKKDGEWKVLIMDHPSMRILSSCCKMSDILAEGITIVEDINKRREPIPSLEAIYLLSPTEKSVQALIKDFQGTPTFTYKAAHIFFTDTCPEPLFSELGRSRLAKVVKTLKEIHLAFLPYEAQVFSLDAPHSTYNLYCPFRAEERTRQLEVLAQQIATLCATLQEYPAIRYRKGPEDTAQLAHAVLAKLNAFKADTPSLGEGPEKTRSQLLIMDRAADPVSPLLHELTFQAMAYDLLDIEQDTYRYETTGLSEAREKAVLLDEDDDLWVELRHMHIADVSKKVTELLRTFCESKRLTTDKANIKDLSQILKKMPQYQKELNKYSTHLHLADDCMKHFKGSVEKLCSVEQDLAMGSDAEGEKIKDSMKLIVPVLLDAAVPAYDKIRVLLLYILLRNGVSEENLAKLIQHANVQAHSSLIRNLEQLGGTVTNPGGSGTSSRLEPRERMEPTYQLSRWTPVIKDVMEDAVEDRLDRNLWPFVSDPAPTASSQAAVSARFGHWHKNKAGIEARAGPRLIVYVMGGVAMSEMRAAYEVTRATEGKWEVLIGSSHILTPTRFLDDLKALDKKLEDIALP [STXBP2]”, for which the “solubility in G1/S (log2)” value with HeLa Kyoto [1] is -0.0683. In addition, the melting temperature was determined as 49.3 °C in the data set on HeLa Kyoto [2] (cell cycle stage: G1/S) and 49.2 °C in the data set on HeLa Kyoto [2] (cell cycle stage: mitosis). In addition, the results for the thermal stability score in the data set with HeLa Kyoto [3] (setting [5]) and in the data set on HeLa Kyoto [3] (cell cycle stage: mitosis) were 0.25 and 1.22, respectively. Further, the “solubility change mitosis (log2)” value in the data set on HeLa Kyoto [4] is -0.19.

As to “MAPSGSLAVPLAVLVLLLWGAPWTHGRRSNVRVITDENWRELLEGDWMIEFYAPWCPACQNLQPEWESFAEWGEDLEVNIAKVDVTEQPGLSGRFIITALPTIYHCKDGEFRRYQGPRTKKDFINFISDKEWKSIEPVSSWFGPGSVLMSSMSALFQLSMWIRTCHNYFIEDLGLPVWGSYTVFALATLFSGLLLGLCMIFVADCLCPSKRRRPQPYPYPSKKLLSESAQPLKKVEEEQEADEEDVSEEEAESKEGTNKDFPQNAIRQRSLGPSLATDKS [TMX1]”, in the data set with HeLa Kyoto [1], the “solubility in G1/S (log2)” value was -0.0895. In addition, the melting temperature turned out to be 54.7 °C with HeLa Kyoto [2] (cell cycle stage: G1/S) and 55.9 °C in the data set with HeLa Kyoto [2] (cell cycle stage: mitosis). For the same sequence, the thermal stability score was 0.556 in the data set on HeLa Kyoto [3] (setting [5]) and 1.24 in the data set with HeLa Kyoto [3] (cell cycle stage: mitosis). In the data set on HeLa Kyoto [4], the “solubility change mitosis (log2)” value is -0.034.

Consider “MAPWPPKGLVPAMLWGLSLFLNLPGPIWLQPSPPPQSSPPPQPHPCHTCRGLVDSFNKGLERTIRDNFGGGNTAWEEENLSKYKDSETRLVEVLEGVCSKSDFECHRLLELSEELVESWWFHKQQEAPDLFQWLCSDSLKLCCPAGTFGPSCLPCPGGTERPCGGYGQCEGEGTRGGSGHCDCQAGYGGEACGQCGLGYFEAERNASHLVCSACFGPCARCSGPEESNCLQCKKGWALHHLKCVDIDECGTEGANCGADQFCVNTEGSYECRDCAKACLGCMGAGPGRCKKCSPGYQQVGSKCLDVDECETEVCPGENKQCENTEGGYRCICAEGYKQMEGICVKEQIPESAGFFSEMTEDELVVLQQMFFGIIICALATLAAKGDLVFTAIFIGAVAAMTGYWLSERSDRVLEGFIKGR [CRELD1]”, for which the “solubility in G1/S (log2)” value with HeLa Kyoto [1] is -0.215. The melting temperature in the data set on HeLa Kyoto [2] (cell cycle stage: G1/S) was 53.8 °C; in the data set on HeLa Kyoto [2] (cell cycle stage: mitosis) it was 53 °C. The thermal stability score with HeLa Kyoto [3] (setting [5]) came to 0.91; in the data set with HeLa Kyoto [3] (cell cycle stage: mitosis), 1.48. Also, the “solubility change mitosis (log2)” value in the data set on HeLa Kyoto [4] is -0.0647.

For the sequence “MAPYSLLVTRLQKALGVRQYHVASVLCQRAKVAMSHFEPNEYIHYDLLEKNINIVRKRLNRPLTLSEKIVYGHLDDPASQEIERGKSYLRLRPDRVAMQDATAQMAMLQFISSGLSKVAVPSTIHCDHLIEAQVGGEKDLRRAKDINQEVYNFLATAGAKYGVGFWKPGSGIIHQIILENYAYPGVLLIGTDSHTPNGGGLGGICIGVGGADAVDVMAGIPWELKCPKVIGVKLTGSLSGWSSPKDVILKVAGILTVKGGTGAIVEYHGPGVDSISCTGMATICNMGAEIGATTSVFPYNHRMKKYLSKTGREDIANLADEFKDHLVPDPGCHYDQLIEINLSELKPHINGPFTPDLAHPVAEVGKVAEKEGWPLDIRVGLIGSCTNSSYEDMGRSAAVAKQALAHGLKCKSQFTITPGSEQIRATIERDGYAQILRDLGGIVLANACGPCIGQWDRKDIKKGEKNTIVTSYNRNFTGRNDANPETHAFVTSPEIVTALAIAGTLKFNPETDYLTGTDGKKFRLEAPDADELPKGEFDPGQDTYQHPPKDSSGQHVDVSPTSQRLQLLEPFDKWDGKDLEDLQILIKVKGKCTTDHISAAGPWLKFRGHLDNISNNLLIGAINIENGKANSVRNAVTQEFGPVPDTARYYKKHGIRWVVIGDENYGEGSSREHAALEPRHLGGRAIITKSFARIHETNLKKQGLLPLTFADPADYNKIHPVDKLTIQGLKDFTPGKPLKCIIKHPNGTQETILLNHTFNETQIEWFRAGSALNRMKELQQ [ACO2]”, in the data set with HeLa Kyoto [1], the “solubility in G1/S (log2)” value was determined as 0.183. The melting temperature with HeLa Kyoto [2] (cell cycle stage: G1/S) and in the data set on HeLa Kyoto [2] (cell cycle stage: mitosis) was 51.3 °C in each case. Besides, the thermal stability score with HeLa Kyoto [3] (setting [5]) was found to be 0.706; in the data set with HeLa Kyoto [3] (cell cycle stage: mitosis), 0.579. Besides, the “solubility change mitosis (log2)” value in the data set with HeLa Kyoto [4] was -0.179.

“MAQAKINAKANEGRFCRSSSMADRSSRLLESLDQLELRVEALREAATAVEQEKEILLEMIHSIQNSQDMRQISDGEREELNLTANRLMGRTLTVEVSVETIRNPQQQESLKHATRIIDEVVNKFLDDLGNAKSHLMSLYSACSSEVPHGPVDQKFQSIVIGCALEDQKKIKRRLETLLRNIENSDKAIKLLEHSKGAGSKTLQQNAESRFN [BAG2]”: the “solubility in G1/S (log2)” value with HeLa Kyoto [1] came to 0.345. The melting temperature in the data set on HeLa Kyoto [2] (cell cycle stage: G1/S) and in the data set on HeLa Kyoto [2] (cell cycle stage: mitosis) was 50.9 °C each time. Also, the thermal stability score with HeLa Kyoto [3] (setting [5]) is -2.02; in the data set on HeLa Kyoto [3] (cell cycle stage: mitosis), -3.48. The “solubility change mitosis (log2)” value with HeLa Kyoto [4] was 0.474.
